Measured values as given in the DeepSol protein solubility set.

Experiment: soluble on expression in E. coli; label from the status in PepcDB or PDB records

Sequence	soluble on expression in E. coli
MGSDKIHHHHHHMSTNLDQLTDWLKEHKITEVECMVSDLTGITRGKISPTNKFIAEKGMRLPESVLLQTVTGDYVEDDIYYELLDPADIDMICRPDQNAVYLVPWAVEPTAQVIHDTYDKQGNPIELSPRNVLKKVLKLYADQGWQPIVAPEMEFYLTKRSDDPDYPLQPPIGRSGRPETGRQSFSIEAANEFDPLFEDVYDWCELQNLDLDTLIHEDGTAQMEINFRHGDALSLADQILVFKRTMREAALKHDVAATFMAKPMTGEPGSAMHLHQSIIDIETGKNIFSNEDGTMSELFLNHVGGLQKFIPELLPLFAPNVNSFRRFLPDTSAPVNVEWGEENRTVGLRVPDAVPQNRRVENRLPGADANPYLAIAASLLCGFIGMVEGINPSAPVVGRGYERRNLRLPLTIEDALERMENSKTIEKYLGKKFIIGYVAVKRAEHENFKRVISSWEREFLLFAV	not soluble
MEEVFTAALESKIFRKRWVLLPDYVPDVLPHREAELRRLAEVLAPALRGEKPSNALLYGLTGTGKTAVARLVLRRLEARASSLGVLVKPIYVNARHRETPYRVASAIAEAVGVRVPFTGLSVGEVYERLVKRLSRLRGIYIIVLDEIDFLPKRPGGQDLLYRITRINQELGDRVWVSLVGITNSLGFVENLEPRVKSSLGEVELVFPPYTAPQLRDILETRAEEAFNPGVLDPDVVPLCAALAAREHGDARRALDLLRVAGEIAERRREERVRREHVYSARAEIERDRVSEVVRTLPLHAKLVLLSIMMLEDGGRPASTGEIYERYKELTSTLGLEHVTLRRVSGIISELDMLGIVKSRVVSRGRYGKTREVSLDADRLAVENALSEDPFVARLL	not soluble
MKTEEELLNRMQAYCARTEHCRSEVAAKLRQAGTDELMIERLLQRLVEDRFIDEDRFARAYARDKYRFNGWGPKRIALELVKRHIPDSIIGSTLLDLEEGEDKIEDNLPRLLERKLRSIKDTDDRGRLHRLVRWAVGRGFEYEQVMREASRLLRKGYEEDS	not soluble
MGSDKIHHHHHHMFKGIIAALWDMDSIGEIEPDVVFLLKSDILNLKFHLKILKDRGKTVFVDMDFVNGLGEGEEAILFVKKAGADGIITIKPKNYVVAKKNGIPAVLRFFALDSKAVERGIEQIETLGVDVVEVLPGAVAPKVARKIPGRTVIAAGLVETEEEAREILKHVSAISTSSRILWKMKFLP	soluble
MGSDKIHHHHHHMIQYKRCSEVSIDLVYEAFRDGFSDYIIKMEVSKEDFIKRFFGAEGNSLKHSFVALDGNKSVGVILGGIKDYENIKTMRCGTLAVHPNYRGIGVSQKLFELHKDEAIQNGCKQLFLEVIVGNDRAIRFYNKLGYEKVYDLSYYNLKDMTKIIHKECKGIEVKQLEFPAFKVEIQKWLHFHINWQNDMDYIEKTNHTFYGAYVDNDLKGSICINEQGKISFIFIDKEYRNRGIGSKLLQVARDELNLESLLISFPNNSLLEGFLKKTGFEKNSLAQYEMYVLL	not soluble
MGSDKIHHHHHHMMAPNQFSSGDVIADRRADYARMLAESGDYPAAAELMEQALELAPRWTAGWFRFGEYHEKAGETAKAVAAYEKVAELDAEGLFAAELKLAVLGAAETPEQPPSRYVEGLFDDYADRFETSLVEKLDYSVPQKLAELIGKAATGDAFDTIVDIGCGTGLLGIEIRSLAKRLEGFDISQNMLAKADEKSLYDHLGQADLSLDAEASGLFTPVLTQHRADLVAAADVMMYLGSLETVMPLVSALLKPSGFFAFSVEDAGDEQGFVLRESLRYAHSKSYVIDLLERSGFSPMEIRKTTIRKDAGKPLSGILFLARAKA	not soluble
GANETTKQESPVVDTDINAVTNYIVGMCQKFLQKGEKVTPSSKLEELRTREDRLWDCLDTVEFVLDVEEIFDVTVPDEVADNFQTLQEIADFVVSERAKAGKFMKDQ	soluble
MGSDKIHHHHHHMDCNGSGGSSDDDKPLHHDGGVRMKFFRSVGEVFGYSPFRSLAQHARMCGRAVGLLQQQFEALRRGNYEEVEELREEIDELEHHADQIKEEIRGNVTKSLMLPVDRHDLLEFLKVQDDILNNCEHVGHMVTFRKVSAPEDVWDEFLVLLSKLMEIVNNYEEMVERIMQLVETSFSKKEVNRALEYVPIIEQLEHECDLIQIGLHTKLFNLENSNPLDIQLMVTWVVHLGYVANAAARASDRFRIMILGR	not soluble
AKPVTSETMAAKTVGLQIYSLGKELYADVPGGLKKIKQMGYTNLELAGYKEGKIGGVDMMEFKKMVDDAGLKITSSHVNPPVREYTKANRSQISEYWKKTADDHAKLGVKYLIQPGQPSTRSTEETAFVCEIFNEAGKIVKAAGIPFGYHNHEMEFAKVNPGSTEAKLGRRVKGDCIYELFLKNTDPSLVFFEMDVYWAVMGQQDPIEWLKKYPNRIKVLHIKDRAILGESGMMNFENIFRQAYANGIKDYFVELEGMPDGRSQFEGVKGCVDYLLKAPFVK	soluble
MSLQRARCYLIGETAVVLELEPPVTLASQKRIWRLAQRLVDMPNVVEAIPGMNNITVILRNPESLALDAIERLQRWWEESEALEPESRFIEIPVVYGGAGGPDLAVVAAHCGLSEKQVVELHSSVEYVVWFLGFQPGFPYLGSLPEQLHTPRRAEPRLLVPAGSVGIGGPQTGVYPLATPGGWQLIGHTSLSLFDPARDEPILLRPGDSVRFVPQKEGVCEGHHHHHH	not soluble
MGSDKIHHHHHHMNDLKRLPYEPVKGLLPRPAVGTSERVITLPEPDRTSGMPLMGTLWLRKSTREFDQQPLPLKQLSELLWAAAGVNRSLGGGRTAPSPYGETVIDVYVALPAGLYRYDPVHHCLELKRAADLRSMTGYQDFVGMAPLDLVFVANHGRMQEMPPKLRETFSAAAAGAMAENAYLYCASAGLGAVVRGWLNRRQLAEHMSLNEDEEPILSQTIGRAASHVTTTQA	not soluble
MGLRPVSYTDSSVTPSVDGSIVLTAASVQSMPDSEESRLYGDDATYLAEGGRRQCPYTSNGPTFMETASFKKKRSKSADIWREDSLEFSLSDLSQEHLTSNEEILGSAEEKDCEEARGMETEASPRQLSTCQRANSLGDLYAQKNSGVKANGGPRNRFSSYCRNLVSDIPDLAKHKMPPAAAEETPPYSNYNTLPCRKSHCLSEGATNPQISLSKSMQGRRAKTTQDVNTGEGSEFADSGIEGATTDTDLLSRRSNATNSSYSPPTGRAFVGSDSGSSSTGDAARQGVYENFRRELEMSTTNSESLEEAGSAHSDEQSSGTLSSPGQSDILLTAAQGTVRKAGALAVKNFLVHKKNKKVESATRRKWKHYWVSLKGCTLFFYETDGRSGIDHNSVPKHAVWVENSIVQAVPEHPKKDFVFCLSNSLGDAFLFQTTSQTELENWITAIHSACAAAVARHHHKEDTLRLLKSEIKKLEQKIDMDEKMKKMGEMQLSSVTDSKKKKTILDQIFVWEQNLEQFQMDLFRFRCYLASLQGGELPNPKRLLAFASRPTKVAMGRLGIFSVSSFHALVAARTGEIGVRRRTQAMSRSASKRRSRFSSLWGLDTTSKKKQGRPTINQVFGEGTDAVKRSLEGIFDDTVPDGKREKEVVLPSVHQHNPDCDIWVHEYFTPSWFCLPNNQPALTVVRPGDTARDTLELICKTHQLDHSAHYLRLKFLMENRVQFYIPQPEEDIYELLYKEIEICPKVTQNIHIEKSDAAADNYGFLLSSVDEDGIRRLYVNSVKETGLASKKGLKAGDEILEINNRAAGTLNSSMLKDFLSQPSLGLLVRTYPEPEGGVELLENPPHRVDGPVDLGESPLAFLTSNPGHSLSSEQGSSAETAPEEGEGPDLESSDETDHSSKSTEQVAAFCRSLHEMSPSDSSPSPQDATSPQLATTRQLSDADKLRKVICELLETERTYVKDLNCLMERYLKPLQKETFLTQDELDVLFGNLTEMVEFQVEFLKTLEDGVRLVPDLEKLEKVDQFKKVLFSLGGSFLYYADRFKLYSAFCASHTKVPKVLVKAKTDTAFKAFLDAQNPRQQHSSTLESYLIKPIQRVLKYPLLLRELFALTDAESEEHYHLDVAIKTMNKVASHINEMQKIHEEFGAVFDQLIAEQTGEKKEVADLSMGDLLLHTSVIWLNPPASLGKWKKEPELAAFVFKTAVVLVYKDGSKQKKKLVGSHRLSIYEEWDPFRFRHMIPTEALQVRALPSADAEANAVCEIVHVKSESEGRPERVFHLCCSSPESRKDFLKSVHSILRDKHRRQLLKTESLPSAQQYVPFGGKRLCALKGARPAMSRAVSAPSKSLGRRRRRLARNRFTIDSDAISASSPEKEPQQPAGGGDTDRWVEEQFDLAQYEEQDDIKETDILSDDDEFCESLKGASVDRDLQEQLQAASISQRARGRRTLDSHASRMTQLKKQAALSGINGGLESASEEVIWVRREDFAPSRKLNTEI	soluble
MNSLLRLSHLAGPAHYRALHSSSSIWSKVAISKFEPKSYLPYEKLSQTVKIVKDRLKRPLTLSEKILYGHLDQPKTQDIERGVSYLRLRPDRVAMQDATAQMAMLQFISSGLPKTAVPSTIHCDHLIEAQKGGAQDLARAKDLNKEVFNFLATAGSKYGVGFWKPGSGIIHQIILENYAFPGLLLIGTDSHTPNGGGLGGLCIGVGGADAVDVMADIPWELKCPKVIGIKLTGKLNGWTSAKDVILKVADILTVKGGTGAIVEYFGPGVDSISATGMGTICNMGAEIGATTSVFPYNESMYKYLEATGRKEIAEEARKYKDLLTADDGANYDQIIEINLDTLTPHVNGPFTPDLASSIDKLGENAKKNGWPLDVKVSLIGSCTNSSYEDMTRAASIAKQALDKGLKAKTIFTITPGSEQVRATIERDGLSKIFADFGGMVLANACGPCIGQWDRQDVKKGEKNTIVTSYNRNFTGRNDANPATHGFVTSPDITTAMAISGRLDFNPLTDELTAADGSKFKLQAPTGLDLPPKGYDPGEDTFQAPSGSGQVDVSPSSDRLQLLSPFDKWDGKDLEDMKILIKVTGKCTTDHISAAGPWLKYRGHLDNISNNLFLTAINADNGEMNKVKNQVTGEYGAVPATARKYKADGVRWVAIGDENYGEGSSREHAALEPRHLGGRAIIVKSFARIHETNLKKQGMLPLTFANPADYDKIDPSDNVSIVGLSSFAPGKPLTAIFKKTNGSKVEVTLNHTFNEQQIEWFKAGSALNRMKEVFAKSK	soluble
MFRKESTILVLGSKVRGAQPGHVLRWRLEHALELSRHTTGPIVVSGKGEAYVMDDWLIRHGVDYRRLIVEPEATSTNENIENAHALLPDTHEWLVVTSDFHKLRTLAWARHLGVPIRVSSAVTKPPFRVNNFVRECFALPHSLLRIAWRRLLAAAALEHHHHHH	not soluble
AHHHHHHGSKRVWLVIPDTNFLFIPGQFGVDIISELERILDVNYKIVIPNIVLEELKTILREGKLRGKDLIAARMALKLAERFPTIYVGDFMSKTTDELIYEFAISNDNVIVCTNDKQLRKRLREAGVPVVFLRQKKKLELEGMLG	soluble
MMAIQASDMDISRFGSEIFRNSPRQSDLMIVSGTVTKKMAPRVRRIYDEMPYPKYVIAQGVCVIQGGPYNQGYSVVLGVDKVVPVDVYVPGCPPTPEALTNGIILLQKKIRGEADRLEHHHHHH	not soluble
MSLSFKDAVRKRPGMYFGDIDHNAVNHVIYELVANVVDLFLAGRATTLKVDVSECEIIVIDDGPGFPFPVEDSAHNLVERYLTHHHDKPTADDHAPHIHVLGGGLGLAAVNAVSEKLTIESSNGAWRWRQVFGKGDVLAPLESFRYDGPSGSSIKFTLDPSVFHNRLPDFFQLRKAMFELAHLYSGLIVEFDGERYVSKQGLMELAYLMWSGEGHHHHHH	not soluble
AMADIGSMGDPLTWSKALKKLEKVTVQGSQKLTTGNCNWALSLVDLFHDTNFVKEKDWQLRDVIPLLEDVTQTLSGQEREAFERTWWAISAVKMGLQINNVVDGKASFQLLRAKYEKKTANKKQSEPSEEY	soluble
MSLQTPDTATTAPYLLAGAPTFDLSISQFREDFNSQNPSLPLNEFRAIDSSPDKANLTRAASKINENLYASTALERGTLKIKSIQMTWLPIQGPEQKAAKAKAQEYMAAVIRTLTPLMTKTQSQKKLQSLLTAGKNKRYYTETEGALRYVVADNGEKGLTFAVEPIKLALSESLEGLNKEGHHHHHH	soluble
